From the RNAGym collection of RNA variant scans (doi:10.7554/elife.80360) come the findings set out here.

Sequences and labels used below:
B1: HDV Ribozyme (parent)
chain: GGCCGGCAUGGUCCCAGCCUCCUCGCUGGCGCCGGCUGGGCAACAUUCCGAGGGGACCGUCCCCUCGGUAAUGGCGAAUGGGACCCA

This data set covers variants of B1. Kind of data set: self-cleavage, relative activity (ratio to wild type); higher = more cleavage; co-transcriptional.
Consider C49G A87G, for which the self-cleavage came out at 0.969.

With C48U A78C, the self-cleavage worked out at 0.115.

For U12C C44U, the self-cleavage amounted to 0.0692.

For the variant U79A G81A, the self-cleavage is 0.0773.

As to G28C C30U, the self-cleavage worked out at 0.0791.

G2U G50A: the self-cleavage stood at 0.047.

For the variant C36A G76A, the self-cleavage is 0.266.

Turning to G6U C57A, the self-cleavage was determined as 0.623.

For C26A C41G, the self-cleavage was 0.883.

For G17U G53C, the self-cleavage came out at 0.354.

G34A C66A: the self-cleavage amounted to 0.286.

Consider G17U G31U, for which the self-cleavage was 0.0723.

As to C4A C86G, the self-cleavage stood at 0.405.

Turning to A71G G81U, the self-cleavage amounted to 0.291.

In the case of C3U U60G, the self-cleavage came to 0.591.

As for C61G C66U, the self-cleavage was 1.08.

Turning to G55C C62U, the self-cleavage stood at 0.946.

For C13U G28U, the self-cleavage was 0.0615.

For the variant C30G G38U, the self-cleavage was found to be 0.114.

As for C36G A45C, the self-cleavage was determined as 0.0504.

G35C C58G: the self-cleavage worked out at 0.161.

G34A U65C: the self-cleavage worked out at 0.141.

For G1C G11C, the self-cleavage worked out at 0.131.

On to C33G U72A, for which the self-cleavage came out at 0.

Turning to A51G A56U, the self-cleavage was found to be 1.

With G2A A8C, the self-cleavage was 0.106.

Turning to A8U G34U, the self-cleavage was found to be 0.142.

C21G C36A: the self-cleavage turned out to be 0.0405.

As for G11U C48U, the self-cleavage came out at 0.369.

On to C21U U46G, for which the self-cleavage turned out to be 0.0978.

C14U C57G: the self-cleavage came to 0.787.

In the case of C63U G74U, the self-cleavage turned out to be 0.583.

Consider A56U C58G, for which the self-cleavage is 1.08.

G34C G39U: the self-cleavage amounted to 0.156.

With C19A A56U, the self-cleavage worked out at 0.122.

Turning to C62A G73U, the self-cleavage was found to be 0.212.

Take C21A G53A: the self-cleavage came to 0.0791.

With C36A A51C, the self-cleavage was 0.277.

Regarding C21A U46A, the self-cleavage was found to be 0.322.

With G39A C85U, the self-cleavage was 0.465.

Regarding G29U G31U, the self-cleavage stood at 0.0804.

Consider C64G C84A, for which the self-cleavage came out at 0.718.

Take C4A A70G: the self-cleavage was 0.189.

Take G29A U47G: the self-cleavage turned out to be 0.0978.

Consider C30U G38A, for which the self-cleavage was determined as 0.0773.

As to C30U C57A, the self-cleavage stood at 0.787.

Turning to G6C U12A, the self-cleavage came to 0.

On to G29A A42G, for which the self-cleavage was determined as 0.0415.

On to C30U C58G, for which the self-cleavage is 0.569.

On to G28A A77C, for which the self-cleavage is 0.119.

Regarding G2C G39A, the self-cleavage was 0.121.

G38A C41G: the self-cleavage stood at 0.291.

With G2A G34C, the self-cleavage stood at 0.0489.

On to G52A G55A, for which the self-cleavage amounted to 0.893.

With C3U U20G, the self-cleavage worked out at 0.125.

Consider C13G A43C, for which the self-cleavage was determined as 0.262.

As for G34C G55C, the self-cleavage worked out at 0.261.

G2U G55U: the self-cleavage is 0.0654.

Regarding G1A C7A, the self-cleavage came out at 0.191.

Turning to G40U U79C, the self-cleavage is 0.185.

Turning to A45U C66U, the self-cleavage came to 1.02.

Turning to C21U C32U, the self-cleavage was found to be 0.205.

Consider G25U C33U, for which the self-cleavage was determined as 0.0831.

In the case of A16C A78G, the self-cleavage stood at 0.361.

On to G6U A78G, for which the self-cleavage worked out at 0.229.

As to U47G C85A, the self-cleavage was found to be 0.959.

As for U46A G54U, the self-cleavage was determined as 0.684.

For G5A U79C, the self-cleavage came to 0.0252.

As for C3A C32G, the self-cleavage was 0.0266.

Consider G40A A87C, for which the self-cleavage was determined as 0.981.

As to G25A A42C, the self-cleavage was found to be 0.0462.

A8U A43C: the self-cleavage turned out to be 0.453.

With G53A G82C, the self-cleavage is 0.246.

Consider G67C C85U, for which the self-cleavage was found to be 0.92.

For the variant C14G A42C, the self-cleavage came out at 0.0923.

As for C32G G52C, the self-cleavage is 0.208.

For the variant G1A G81U, the self-cleavage worked out at 0.0426.

For the variant A8G C22G, the self-cleavage was 0.0489.

Consider G25U A45U, for which the self-cleavage was determined as 0.172.

As for G6C A70U, the self-cleavage was 0.185.

Regarding G29A C49U, the self-cleavage stood at 0.237.

Turning to G38A G59C, the self-cleavage came to 0.0256.

As for U46C C61A, the self-cleavage turned out to be 1.09.

In the case of G17C U47A, the self-cleavage is 0.

As to C14G U27C, the self-cleavage came to 0.727.

With U69A G80A, the self-cleavage turned out to be 0.434.

In the case of C49G A83U, the self-cleavage was found to be 0.35.

With G5A G31A, the self-cleavage stood at 0.

Regarding G29C A45U, the self-cleavage came to 0.0519.

On to G76A G81U, for which the self-cleavage is 0.437.

As to G10C G28U, the self-cleavage was found to be 0.148.

For the variant C62U U65G, the self-cleavage came out at 0.631.

With G11U G67U, the self-cleavage came to 0.168.

For the variant C19A G25U, the self-cleavage was 0.0791.

Take C15U G53C: the self-cleavage was found to be 0.956.

For the variant U23A G50U, the self-cleavage stood at 0.964.

Turning to A43C U72G, the self-cleavage was found to be 0.293.

Turning to G34C A78C, the self-cleavage worked out at 0.0898.

Take U47G A71U: the self-cleavage was 1.18.

Take C13U A42C: the self-cleavage stood at 0.0831.

On to U69A C85U, for which the self-cleavage stood at 0.831.

Turning to G54C C86G, the self-cleavage was 1.02.

As for G5C C22A, the self-cleavage came to 0.

As for C18G C84U, the self-cleavage was 0.0386.

For the variant C3G G80C, the self-cleavage was found to be 0.0665.

With C26U C75G, the self-cleavage worked out at 0.287.

As for U12C U27G, the self-cleavage was 0.312.

For G34C G81A, the self-cleavage came out at 0.16.

Turning to G39C U79A, the self-cleavage was 0.

As for A16G C36A, the self-cleavage was 0.229.

For the variant A43G C57A, the self-cleavage was found to be 0.628.

For U60G C66A, the self-cleavage was 0.831.

For C62G A83G, the self-cleavage amounted to 0.404.

As for C3U G10A, the self-cleavage was found to be 0.513.

As to G31A A45G, the self-cleavage came to 0.422.

Consider A42C G50A, for which the self-cleavage turned out to be 0.325.

G59A C63U: the self-cleavage amounted to 1.13.

For C7G C75G, the self-cleavage came to 0.145.

Take U37A C48A: the self-cleavage is 0.208.

Take G59C G68C: the self-cleavage stood at 1.11.

As to U12G U60A, the self-cleavage stood at 0.68.

Regarding C13U C32G, the self-cleavage was 0.101.

Turning to G25C G81C, the self-cleavage was found to be 0.0449.

Turning to G39C A70U, the self-cleavage stood at 0.0308.

On to C4U G76C, for which the self-cleavage stood at 0.984.

Take C32G U37C: the self-cleavage stood at 0.264.

For G5A A77C, the self-cleavage turned out to be 0.0504.

On to A8C C24G, for which the self-cleavage came out at 0.

As for G55C U65G, the self-cleavage is 1.06.

In the case of G52A G54A, the self-cleavage turned out to be 0.9.

As for C32U G35C, the self-cleavage was found to be 0.0573.

In the case of C58A C75G, the self-cleavage stood at 0.116.

For C4G A45C, the self-cleavage was found to be 0.0554.

As for G28U A77G, the self-cleavage was found to be 0.111.

For the variant C14A A16U, the self-cleavage is 0.923.

Consider C21G C75U, for which the self-cleavage came to 0.0378.

In the case of G38A A77G, the self-cleavage turned out to be 0.0852.

As for C18U C33G, the self-cleavage stood at 0.252.

For G5A G39U, the self-cleavage amounted to 0.101.

Regarding G6A G10U, the self-cleavage was 0.0963.

As for C15G A77G, the self-cleavage turned out to be 0.332.

Regarding G35A U47A, the self-cleavage was 0.466.

With G59U A83G, the self-cleavage came to 0.732.

Turning to C7G G25C, the self-cleavage was found to be 0.

For U27G A45G, the self-cleavage amounted to 0.712.

On to C13U A78G, for which the self-cleavage came out at 0.178.

For C30A C61G, the self-cleavage came to 0.583.

Take C58G C61G: the self-cleavage came out at 0.88.

A51G C62U: the self-cleavage came to 1.01.

G29C C58G: the self-cleavage stood at 0.156.

Regarding G40U C57U, the self-cleavage is 0.712.

As to G1C C3U, the self-cleavage turned out to be 0.34.

Turning to G6U C64G, the self-cleavage is 0.388.

With C36A G54A, the self-cleavage was 0.0804.

As for G11U A87C, the self-cleavage was 0.415.

For U37C C44U, the self-cleavage was 0.529.

As to G11U G80C, the self-cleavage came out at 0.

Take C44U U69A: the self-cleavage turned out to be 0.787.

As for A42U G74C, the self-cleavage was determined as 0.17.

G53U G80U: the self-cleavage was determined as 0.256.

For the variant U23G C41G, the self-cleavage was 0.597.

As for C62A C85G, the self-cleavage came to 0.88.

Regarding U9G C30A, the self-cleavage amounted to 0.653.

For the variant G76C C86U, the self-cleavage came out at 0.886.

Consider C33A C57G, for which the self-cleavage was found to be 0.332.

In the case of C4A C30G, the self-cleavage stood at 0.

Regarding G28C C33G, the self-cleavage was found to be 0.0519.
